For assay [1], the target named is C-terminally KGC-tagged Gag (Gag-KGC). As to the kind of experiment: bimolecular fluorescence complementation (BiFC), flow cytometry on cells. The note with it: 293T cells, 48 hours post-transfection; parent: est. 100; read off a plot. Background: A flow cytometer gives signals particle by particle.
Assay [2] deals with N-terminally KGN-tagged Vpr (KGN-Vpr) (UniProt P12520). The assay is described as above. The settings on record: 293T cells, 48 hours post-transfection; parent: est. 100; read off a plot.

Regarding “N-terminally KGN-tagged Vpr (KGN-Vpr) (from UniProt P12520) Q44E”, in assay [1], the percent of parent came to 30%.
As for “C-terminally KGC-tagged Gag (Gag-KGC) S487A”, the percent of parent in assay [2] amounted to 35%.

For the origin of these results see publication PMC3905668.
